The values that follow come from US20190256588A1 (BEIJING HANMI PHARM, published 2019).

A word on the EC50: it is the concentration needed to bring the measured effect to its halfway point. Usually Kd stands for the equilibrium constant for the complex coming apart. As a reminder, the koff is a measure of how fast the partners let go of each other. As a reminder, the kon is the second-order rate constant of association.

For experiment [1], the target named is recombinant monkey IL-17A (monkey). Put plainly: ELISA, recombinant monkey IL-17A coated on the plate, HRP anti-human IgG, OD450nm. As for the experimental part:
(§1) Recombinant human IL-17A, monkey IL-17A, rat IL-17A and mouse IL-17A (all purchased from Sino Biological Inc.), were coated on a 96-well high-absorbing ELISA plate with a carbonate buffer solution with pH 9.6, the coating concentration was […], the coating amount was 100 μL per well, and the coating was carried out at 4° C. overnight. The plate was washed five times with PBST and blocked with 300 μL/well of PBST containing 1% BSA, and then incubated at 25° C. for 1 hour. The plate was washed five times with PBST. […] The plate was washed five times with PBST. Then, horseradish peroxidase-labeled anti-human IgG antibody (Chemicon, Catalog Number AP309P) 1:2000 diluted in PBST containing 1% BSA was added, 100 μL per well, incubated at 25° C. for 1 hour. The plate was washed five times with PBST. 100 μL/well of colorimetric substrate TMB was added and incubated at room temperature for 10 minutes. Color development was terminated by adding 100 μL/well of 1 M H₂SO₄. The absorbance at 450 nm was read on a microplate reader.
On the technique in general: ELISA stands for enzyme-linked immunosorbent assay.

Experiment [2] has as its target T1, recombinant human IL-17A (human, UniProt Q16552 24-155).
T1 construct: also called IL-17A antigen
Description: ELISA, recombinant human IL-17A coated on the plate, HRP anti-human IgG, OD450nm. The method, then: as §1

The next experiment addresses T2, recombinant rat IL-17A (rat, UniProt Q61453 18-150, limits assumed).
T2 sequence (looked up): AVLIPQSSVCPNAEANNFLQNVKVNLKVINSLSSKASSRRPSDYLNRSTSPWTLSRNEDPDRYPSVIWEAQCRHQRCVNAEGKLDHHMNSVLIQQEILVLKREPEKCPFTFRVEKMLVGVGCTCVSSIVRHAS
Put plainly: ELISA, recombinant rat IL-17A coated on the plate, HRP anti-human IgG, OD450nm. The method, then:
as §1

In a further experiment the target is T3, recombinant human IL-17F (human, UniProt Q96PD4 31-163).
T3 sequence (looked up): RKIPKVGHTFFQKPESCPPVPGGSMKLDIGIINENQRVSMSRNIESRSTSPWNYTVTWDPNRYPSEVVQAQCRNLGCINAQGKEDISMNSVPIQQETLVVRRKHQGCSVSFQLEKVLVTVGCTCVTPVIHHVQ
Description: ELISA, cytokine coated on plate at 1 µg/mL. The method, then: (§2) Recombinant human IL-17A, IL-17B, IL-17C, IL-17D, IL-17E, IL-17F, IL-1, IL-2, IL-6, IL-8, IL-21, IL-22, IL-23, IFN-g and TNFα (purchased from Sino Biological Inc. or R&D systems) were coated on a 96-well high-absorbing ELISA plate with a carbonate buffer solution with pH 9.6, the coating concentration was 1 μg/mL, the coating amount was 100 μL per well, and the coating was carried ax 4° C. out overnight. The plate was washed five times with PBST and blocked with 300 μL/well of PBST containing 1% BSA and incubated at 25° C. for 1 hour. The plate was washed five times with PBST. […] The plate was washed five times with PBST. Then, horseradish peroxidase-labeled anti-human IgG antibody (Chemicon, Catalog Number AP309P) 1:2000 diluted in PBST containing 1% BSA was added, 100 μL was added to each well, incubated at 25° C. for 1 hour. The plate was washed five times with PBST. 100 μL/well of colorimetric substrate TMB was added and incubated at room temperature for 10 minutes. Color development was terminated by adding 100 μL/well of 1 M H₂SO₄. The absorbance at 450 nm was read on a microplate reader.
(§3) Recombinant human IL-17A, IL-17B, IL-17C, IL-17D, IL-17E, IL-17F, IL-1, IL-2, IL-6, IL-8, IL-21, IL-22, IL-23, IFN-g and TNFα (purchased from Sino Biological Inc. or R&D systems) were coated on a 96-well high-absorbing ELISA plate with a carbonate buffer solution with pH 9.6, the coating concentration was 1 μg/mL, the coating amount was 100 μL per well, and the coating was carried at 4° C. out overnight. Washed five times with PBST. Blocked with 300 μL/well of PBST containing 1% BSA and incubated at 25° C. for 1 hour. Washed five times with PBST.

The target in a further experiment is recombinant human IL-2 (human, UniProt P60568 21-153). Description: ELISA, cytokine coated on plate at 1 µg/mL. The method, then: as §2, §3
A further experiment addresses T4, recombinant human IL-22 (human, UniProt Q9GZX6 34-179).
T4 sequence (looked up): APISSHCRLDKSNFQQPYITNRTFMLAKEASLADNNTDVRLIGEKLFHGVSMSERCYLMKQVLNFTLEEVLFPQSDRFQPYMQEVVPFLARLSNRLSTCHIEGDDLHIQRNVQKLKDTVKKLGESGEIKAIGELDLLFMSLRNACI
Put plainly: ELISA, cytokine coated on plate at 1 µg/mL. The method, then: as §2, §3

A further experiment concerns the target T5, recombinant human IL-17C (human, UniProt Q9P0M4 19-197).
T5 sequence (looked up): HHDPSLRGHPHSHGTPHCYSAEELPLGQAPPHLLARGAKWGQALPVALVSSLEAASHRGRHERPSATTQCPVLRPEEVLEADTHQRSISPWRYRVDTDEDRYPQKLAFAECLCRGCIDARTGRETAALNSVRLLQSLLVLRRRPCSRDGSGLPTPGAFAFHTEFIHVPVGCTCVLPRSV
Description: ELISA, cytokine coated on plate at 1 µg/mL. The method, then:
as §2, §3

The target of a further experiment is recombinant human IL-21 (human, UniProt Q9HBE4 32-162, limits assumed). Put plainly: ELISA, cytokine coated on plate at 1 µg/mL. As for the experimental part: as §2, §3
Experiment [3] concerns the target T1, recombinant human IL-17A. Description: SPR, Biacore 3000, human IL-17A coupled to CM5 chip, antibody injected. The method, then:
The instrument utilizes an optical surface plasmon resonance technique to detect association and dissociation between a molecule coupled on a sensor chip and an analyte. CM5 chips (GE Healthcare, BR-1000-12) were used. Brief experiment procedure was as follow: human IL-17A was dissolved in sodium acetate buffer (pH 5.0) and coupled to CM chip by injecting at a speed of 10 μL/min. 1 M ethanolamine was injected at a speed of 10 μL/min for blocking. […] 10 mM glycine solution (pH 2.0) was used for regeneration. Association rate constants and dissociation rate constants were analyzed and calculated by Biacore 3000 control software.
In general terms: SPR reads the build-up and loss of mass on a sensor chip optically.

T1 sequence (Q16552 24-155 limits assumed): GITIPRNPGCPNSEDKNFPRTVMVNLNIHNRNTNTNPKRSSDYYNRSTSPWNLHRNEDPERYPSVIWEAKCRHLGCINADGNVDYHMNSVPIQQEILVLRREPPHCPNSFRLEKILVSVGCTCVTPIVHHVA
recombinant human IL-2, sequence (P60568 21-153 limits assumed): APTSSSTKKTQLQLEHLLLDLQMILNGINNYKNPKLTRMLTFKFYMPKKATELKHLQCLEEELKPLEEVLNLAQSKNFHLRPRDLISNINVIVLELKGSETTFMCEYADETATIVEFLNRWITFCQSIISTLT
recombinant human IL-21, sequence (Q9HBE4 32-162 limits assumed): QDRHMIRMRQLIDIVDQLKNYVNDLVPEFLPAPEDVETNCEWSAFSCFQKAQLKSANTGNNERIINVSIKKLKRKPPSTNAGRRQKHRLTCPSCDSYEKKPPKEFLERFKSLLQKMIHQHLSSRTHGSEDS

B1: anti-human IL-17A chimeric monoclonal antibody (antibody, human IgG1, kappa, V domains shown)
VH: DVQVQESGPGLVKPSQSLSLTCTVTGNSITSYYAWNWIRQFPGNKLEWMGYITYSGTTSYNPSLKSRISITRDTSKNQFFLQLNSVTTEDTATYYCAREEYDDIYAVDYWGQGTSVTVSS
VL: IIVMTQTPLSLPVSLGDQASISCRSSQSLVHSNGNTYLHWYLQKPGQSPKLLIYKVYNRFSGVPDRFSGSGSGTDFTLKISRVEAEDLGVYFCSQSTHFPTFGGGTKLEIKR
notes: expressed in 293F cells; also called Anti-human IL-17A Chimeric Antibody; chimeric anti-human IL-17A monoclonal antibody
As to B1, the half-maximal effective concentration (EC50) in experiment [1] turned out to be 90 pM; with recombinant human IL-17A [2], 70 pM. For the same molecule, the binding result in the experiment with recombinant rat IL-17A is given as “no binding (tested: about 20 nM)”; with recombinant human IL-17F, “no binding”; with recombinant human IL-2, “no binding”; in the experiment with recombinant human IL-22, “no binding”; with recombinant human IL-17C, “no binding”; with recombinant human IL-21, “no binding”. For the same molecule, in the experiment with recombinant human IL-17A [3], the Kd worked out at 30 pM. Further, in the experiment with recombinant human IL-17A [3], the koff was 1.49e-06 s⁻¹. Also, in the experiment with recombinant human IL-17A [3], the kon is 54100 M⁻¹ s⁻¹.
